B1: Azoarcus group I ribozyme (parent)
chain: GUGCCUUGCGCCGGGAAACCACGCAAGGGAUGGUGUCAAAUUCGGCGAAACCUAAGCGCCCGCCCGGGCGUAUGGCAACGCCGAGCCAAGCUUCGGCGCCUGCGCCGAUGAAGGUGUAGAGACUAGACGGCACCCACCUAAGGCAAACGCUAUGGUGAAGGCAUAGUCCAGGGAGUGGCGAAAGUCACACAAACCGG

Variants of: B1
Test: reverse-splicing fitness (ratio to wild type); higher = more active; in vitro selection; Mg2+ level not given
Procedure, shortened: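 An in vitro group I ribozyme library with randomized positions was T7-transcribed and gel-purified. In triplicate, 10 pmol RNA in EPPS pH 7.5 was reacted with 50 pmoles of a 30-nt RNA substrate for 1 h at 37 °C across several added MgCl2 levels (1–48 mM), then stopped with EDTA. Products were reverse transcribed from a substrate-complementary primer, PCR-amplified and sequenced (HiSeq 4000). Fitness is a variant's read proportion after selection over that before, normalised to wild type.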

Variant | reverse-splicing fitness
C82A A111G A145U C150G C169G U176A | 0.00771
C82A A111G A145U C150G C169G U176C | 0.00567
C82A A111G A120U A145U C150G C169U U176C | 0.00353
C82A A111G A120U A145U C150G C169U U176A | 0.00252
C82A A111G A120U A145U C150G C169U U176G | 0.0026
C82A A111G A120U C150A C169U | 0.00375
C82A A111G A120U C150A C169G | 0.00463
C82A A111G A120U C150A C169A | 0.00447
C82A A111G A120U C150A U176A | 0.00595
C82A A111G A120U C150A U176C | 0.00802
C82A A111G A120U C150A U176G | 0.00282
C82A A111G A120U C150G U176C | 0.00582
C82A A111G A120U C150G U176G | 0.0031
C82A A111G A120U C150G U176A | 0.00446
C82A A111G A145C C169G U176G | 0.00487
C82A A111G A145C C169G U176C | 0.0155
C82A A111G A145C C169G U176A | 0.0278
C82A A111G A145G C150A C169A | 0.0118
C82A A111G A145G C150A C169G | 0.00998
C82A A111G A145G C150A C169U | 0.0109
C82A A111G A120U A145U C150U C169G U176A | 0.00294

Variant | reverse-splicing fitness
C82A A111G A120U A145U C150U C169G U176G | 0.00208
C82A A111G A120U A145U C150U C169G U176C | 0.00298
C82A A111G A145U C150A C169G U176A | 0.0174
C82A A111G A145U C150A C169G U176C | 0.016
C82A A111G A145U C150A C169G U176G | 0.00624
C82A A111G A145G C150A C169U U176C | 0.0164
C82A A111G A145G C150A C169U U176G | 0.00672
C82A A111G A145G C150A C169U U176A | 0.0159
C82A A111G C150G C169A U176G | 0.00753
C82A A111G C150G C169A U176C | 0.0122
C82A A111G C150G C169A U176A | 0.0113
C82A A111G A120U A145U C150G U176A | 0.0037
C82A A111G A120U A145U C150G U176C | 0.00587
C82A A111G A120U A145U C150G U176G | 0.0023
C82A A111G A145U C150A C169U | 0.0106
C82A A111G A145U C150A C169A | 0.0101
C82A A111G A145U C150A C169G | 0.00826
C82A A111G A120U A145U C150U C169U | 0.00376
C82A A111G A120U A145U C150U C169A | 0.00329
C82A A111G A120U A145U C150U C169G | 0.00324
C82A A111G C150G C169U U176C | 0.0125

Variant | reverse-splicing fitness
C82A A111G C150G C169U U176G | 0.00537
C82A A111G C150G C169U U176A | 0.00656
C82A A111G A145U | 0.431
C82A A111G A145G | 0.419
C82A A111G A145C | 0.41
C82A A111G A120U C150A C169U U176C | 0.00484
C82A A111G A120U C150A C169U U176A | 0.00585
C82A A111G A120U C150A C169U U176G | 0.00235
C82A A111G A120U C150U C169G U176A | 0.00869
C82A A111G A120U C150U C169G U176G | 0.00175
C82A A111G A120U C150U C169G U176C | 0.00437
C82A A111G A145G C150U C169G U176C | 0.0198
C82A A111G A145G C150U C169G U176G | 0.00644
C82A A111G A145G C150U C169G U176A | 0.0156
C82A A111G A120U C150G C169G U176A | 0.00567
C82A A111G A120U C150G C169G U176C | 0.0034
C82A A111G A120U C150G C169G U176G | 0.00237
C82A A111G C150A C169U U176A | 0.0172
C82A A111G C150A C169U U176C | 0.014
C82A A111G C150A C169U U176G | 0.00815
C82A A111G A145U C150U U176G | 0.0305

Variant | reverse-splicing fitness
C82A A111G A145U C150U U176C | 0.166
C82A A111G A145U C150U U176A | 0.106
C82A A111G A145C C150U C169U U176A | 0.0126
C82A A111G A145C C150U C169U U176G | 0.0052
C82A A111G A145C C150U C169U U176C | 0.00981
C82A A111G A145G C150G | 0.0329
C82A A111G A145G C150U | 0.32
C82A A111G A145G C150A | 0.0514
C82A A111G A145C C150G C169A U176G | 0.00658
C82A A111G A145C C150G C169A U176A | 0.00847
C82A A111G A145C C150G C169A U176C | 0.00805
C82A A111G C150A | 0.0352
C82A A111G C150G | 0.024
C82A A111G A145G C150G C169G | 0.00786
C82A A111G A145G C150G C169A | 0.0093
C82A A111G A145G C150G C169U | 0.00932
C82A A111G A145G C169U U176G | 0.00606
C82A A111G A145G C169U U176A | 0.0137
C82A A111G A145G C169U U176C | 0.0149
C82A A111G A145C C150A C169G | 0.00918
C82A A111G A145C C150A C169A | 0.00955

From the RNAGym collection of RNA variant scans (doi:10.1093/molbev/msab373)
